# Assay results: publication PMC12776482, “Structural and Functional Analysis of GGPPS Inhibition as a Therapeutic Mechanism for Acute Myeloid Leukemia (AML)” (Research Square, 2025)
# Molecular target: the molecule itself
# Assay: mass photometry; purified wild-type recombinant human GGPPS in solution; conditions not shown (Fig. S2)
protein,measurement,value
"wild-type recombinant human geranylgeranyl pyrophosphate synthase (GGPPS) (enzyme, human geranylgeranyl pyrophosphate synthase (GGPPS, GGPS1), wild type; His6 tag removed with TEV protease; also called GGPP synthase; hGGPPS; source: E. coli (BL21 DE3), purified (Ni-NTA, TEV cleavage, second Ni-NTA, Superdex 200); not shown: His6, N-terminal, cleaved) MEKTQETVQRILLEPYKYLLQLPGKQVRTKLSQAFNHWLKVPEDKLQIIIEVTEMLHNASLLIDDIEDNSKLRRGFPVAHSIYGIPSVINSANYVYFLGLEKVLTLDHPDAVKLFTRQLLELHQGQGLDIYWRDNYTCPTEEEYKAMVLQKTGGLFGLAVGLMQLFSDYKEDLKPLLNTLGLFFQIRDDYANLHSKEYSENKSFCEDLTEGKFSFPTIHAIWSRPESTQVQNILRQRTENIDIKKYCVHYLEDVGSFEYTRNTLKELEAKAYKQIDARGGNPELVALVKHLSKMFKEENE",stoichiometry N,6
